This series deals with TP53 (Homo sapiens) (UniProt P04637). Kind of series: EMSA-seq.

One may read the Kd as the equilibrium constant for the complex coming apart. A higher Kd goes with a looser complex.

TP53 (Homo sapiens), sequence (P04637 whole entry): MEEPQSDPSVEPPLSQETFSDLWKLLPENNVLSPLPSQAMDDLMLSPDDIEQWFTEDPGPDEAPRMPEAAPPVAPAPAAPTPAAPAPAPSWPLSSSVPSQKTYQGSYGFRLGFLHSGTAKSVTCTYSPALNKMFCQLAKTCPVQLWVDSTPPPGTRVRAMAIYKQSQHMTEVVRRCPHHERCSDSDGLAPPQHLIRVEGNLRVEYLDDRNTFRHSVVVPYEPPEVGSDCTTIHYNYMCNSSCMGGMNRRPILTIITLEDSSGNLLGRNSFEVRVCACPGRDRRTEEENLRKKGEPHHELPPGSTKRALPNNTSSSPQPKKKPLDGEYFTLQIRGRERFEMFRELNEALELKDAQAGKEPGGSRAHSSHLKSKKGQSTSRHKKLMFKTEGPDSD

Turning to “GATGGACCCTATACGCGGCCGCCCTGGAGAATCCCGGTGCCGAGGCCGCTCAATTGGTCGTAGACAGCTCTAGCACCGCTTAAACGCACGTACGCGCTGTCCCCCGCGTTTTAACCGCCAAGGGGATTACTCCCTAGTCTCCAGGCACGTGTCAGATATATACATCCTGTGCGGGCATGTCCGGGCATGTCCGCCGGTGCCAGTCGGATAGTGTTCC (double strand) [High SHL 8 nucleosome (linker)]”, the Kd was determined as 0.019 µM.
